# Data as given in patent publication US20240116985A1 (published 2024).
# Starred links: 1 amine or outer side, 2 acyl side, 3 side chain; linkers in the order of their positions; H or OH if unused. Positions of bridges follow the written chain, without caps; N, C: chain ends. Non-standard residues stand in square brackets, D forms with d. Groups on a side chain read outwards from the residue. Primed or numbered codes have the meaning given here. No end group written: not given here. *: point of attachment. (4Pippip)GlnR = (S)-5-([1,4'-bipiperidin]-1'-yl)-2-amino-5-oxopentanoic acid (Gln side-chain amide with 4-piperidinopiperidine), O=C(CC[C@H](N[*:1])C(=O)[*:2])N1CCC(N2CCCCC2)CC1; (4MePpzPip)GlnR = (S)-2-amino-5-(4-(4-methylpiperazin-1-yl)piperidin-1-yl)-5-oxopentanoic acid, CN1CCN(C2CCN(C(=O)CC[C@H](N[*:1])C(=O)[*:2])CC2)CC1; (Me2NPrPip)GlnR = (S)-2-amino-5-(4-(3-(dimethylamino)propyl)piperazin-1-yl)-5-oxopentanoic acid, CN(C)CCCN1CCN(C(=O)CC[C@H](N[*:1])C(=O)[*:2])CC1; PyrS2″ = (S)-3-amino-1-((pent-4-en-1-yloxy)carbonyl)pyrrolidine-3-carboxylic acid (stapling residue), C=CCCCOC(=O)N1CC[C@@](N[*:1])(C(=O)[*:2])C1; (TfePpz)GlnR = (S)-2-amino-5-oxo-5-(4-(2,2,2-trifluoroethyl)piperazin-1-yl)pentanoic acid, O=C(CC[C@H](N[*:1])C(=O)[*:2])N1CCN(CC(F)(F)F)CC1; (RDMAPyr)GlnR = (S)-2-amino-5-((R)-3-(dimethylamino)pyrrolidin-1-yl)-5-oxopentanoic acid, CN(C)[C@@H]1CCN(C(=O)CC[C@H](N[*:1])C(=O)[*:2])C1; B5(4) = 2,2-bis(4-pentenyl)glycine = 2-amino-2-(pent-4-en-1-yl)hept-6-enoic acid (stitching residue), C=CCCCC(CCCC=C)(N[*:1])C(=O)[*:2]; (CH2NMe2)4SEF = (S)-2-amino-3-(4-(3-(dimethylamino)prop-1-yn-1-yl)phenyl)propanoic acid, CN(C)CC#Cc1ccc(C[C@H](N[*:1])C(=O)[*:2])cc1; TfeGA = (S)-2-amino-3-((carboxymethyl)(2,2,2-trifluoroethyl)amino)propanoic acid, O=C([C@H](CN(CC(=O)[*:3])CC(F)(F)F)N[*:1])[*:2]; PyrS2 = (S)-3-amino-1-((pent-4-en-1-yloxy)carbonyl)pyrrolidine-3-carboxylic acid, C=CCCCOC(=O)N1CC[C@@](N[*:1])(C(=O)[*:2])C1; F2PipNva = (S)-2-amino-5-(4,4-difluoropiperidin-1-yl)pentanoic acid, O=C([C@H](CCCN1CCC(F)(F)CC1)N[*:1])[*:2]; Lithocholoyl = C[C@H](CCC(=O)*)[C@H]1CC[C@H]2[C@@H]3CC[C@@H]4C[C@H](O)CC[C@]4(C)[C@H]3CC[C@]12C; MorphAsn = (S)-2-amino-4-morpholino-4-oxobutanoic acid, O=C(C[C@H](N[*:1])C(=O)[*:2])N1CCOCC1; B5(3) = 2,2-bis(4-pentenyl)glycine (stitching residue), C=CCCCC(CCCC=C)(N[*:1])C(=O)[*:2]; Me3AdamantC = 3,5,7-trimethyladamantane-1-carbonyl, CC12CC3(C)CC(C)(C1)CC(C(=O)*)(C2)C3; Phe(3-CF3) = N[C@@H](Cc1cccc(C(F)(F)F)c1)C(=O)O; Phe(4-CF3) = N[C@@H](Cc1ccc(C(F)(F)F)cc1)C(=O)O; Nva(5-morpholino) = N[C@@H](CCCN1CCOCC1)C(=O)O; Phe(2-CF3) = N[C@@H](Cc1ccccc1C(F)(F)F)C(=O)O; Phe(2-Cl) = N[C@@H](Cc1ccccc1Cl)C(=O)O; Ala(cPent) = N[C@@H](CC1CCCC1)C(=O)O; Bta = N[C@@H](Cc1csc2ccccc12)C(=O)O; αAllylPro = C=CC[C@@]1(C(=O)O)CCCN1; tBuAla = CC(C)(C)C[C@H](N)C(=O)O; 3Thi = N[C@@H](Cc1ccsc1)C(=O)O; S5 = C=CCCC[C@](C)(N)C(=O)O; TfeGA″ = not defined here; PEG2′ = not defined here; Aib = CC(C)(N)C(=O)O
# T1: Bcat-Halo (beta-catenin HaloTag construct transfected into HEK293 cells) (UniProt P35222 1-781)
# T1 sequence (looked up): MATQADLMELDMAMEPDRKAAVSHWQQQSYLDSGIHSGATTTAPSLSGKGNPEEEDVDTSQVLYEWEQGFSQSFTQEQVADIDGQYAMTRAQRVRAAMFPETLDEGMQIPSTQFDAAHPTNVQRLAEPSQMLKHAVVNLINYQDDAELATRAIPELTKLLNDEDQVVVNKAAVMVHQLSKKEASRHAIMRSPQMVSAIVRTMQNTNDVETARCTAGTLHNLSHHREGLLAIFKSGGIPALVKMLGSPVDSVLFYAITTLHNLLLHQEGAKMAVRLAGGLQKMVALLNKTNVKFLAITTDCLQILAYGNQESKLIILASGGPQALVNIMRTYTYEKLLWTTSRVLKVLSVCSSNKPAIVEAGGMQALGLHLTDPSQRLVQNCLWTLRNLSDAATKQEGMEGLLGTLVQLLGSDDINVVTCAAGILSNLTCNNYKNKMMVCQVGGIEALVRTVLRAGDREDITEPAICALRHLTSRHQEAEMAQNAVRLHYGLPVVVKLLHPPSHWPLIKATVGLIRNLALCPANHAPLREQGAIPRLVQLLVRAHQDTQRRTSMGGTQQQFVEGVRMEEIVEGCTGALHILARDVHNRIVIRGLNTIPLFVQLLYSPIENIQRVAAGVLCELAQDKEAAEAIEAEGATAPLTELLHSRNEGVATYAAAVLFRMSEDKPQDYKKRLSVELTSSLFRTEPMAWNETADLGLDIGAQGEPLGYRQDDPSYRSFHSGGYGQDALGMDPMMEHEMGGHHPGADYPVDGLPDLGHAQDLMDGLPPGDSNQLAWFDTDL
# T2: B-cat-Halo (beta-catenin HaloTag NanoBRET construct expressed in HEK293 cells) (UniProt P35222 1-781, HaloTag NanoBRET 618 Ligand bound in the assay)
# T2 sequence (looked up): T1 sequence (looked up)
# T3: Bcat-Halo (beta-catenin HaloTag fusion expressed in HEK293 cells) (UniProt P35222 1-781)
# T3 sequence (looked up): T1 sequence (looked up)
# B1: I-1807 (peptide)
# peptide: Ac-[αAllylPro]D[tBuAla][S5]DDAAFL[Aib][3Thi][Bta]Q-NH2
# modifications: staple 1-4; not fully specified; printed as Ac-PL3-Asp-Npg-S5-Asp-Asp-Ala-Ala-Phe-Leu-Aib-3Thi-BztA-Gln-NH2
# B2: I-1356 (peptide)
# peptide: [αAllylPro]D[tBuAla][B5(4)]DDAAFS[PyrS2″]F[Bta]S-NH2
# modifications: staple 1-4, 4-11; not fully specified; printed as PL3-Asp-Npg-B5-Asp-Asp-Ala-Ala-Phe-Ser-PyrS2-Phe-BztA-Ser-NH2
# Target: T1, Bcat-Halo (beta-catenin HaloTag …)
# Test: cell-based or functional assay
row,NanoBRET Abs IC50 [µM],Binder
1,> 20,"Ac-[αAllylPro]D[tBuAla][B5(3)]DD[MorphAsn]AFL[PyrS2″][3Thi][Bta]Q-NH2 (staple 1-4, 4-11) [I-1483]"
2,9.3,"Ac-[αAllylPro]D[tBuAla][B5(3)]DDAAFL[PyrS2″][3Thi][Bta]QK([PEG2′-Me3AdamantC])-NH2 (staple 1-4, 4-11) [I-1480]"
3,> 20,"Ac-[αAllylPro]D[tBuAla][B5(4)]DDAK([PEG2′-Me3AdamantC])FL[PyrS2″][3Thi][Bta]Q-NH2 (staple 1-4, 4-11) [I-1476]"
4,39.7,"Ac-[αAllylPro]D[tBuAla][B5(3)]DD[Nva(5-morpholino)]AFL[PyrS2″][3Thi][Bta]Q-NH2 (staple 1-4, 4-11) [I-1481]"
5,18,"Ac-[αAllylPro]D[tBuAla][B5(3)]DD[F2PipNva]AFL[PyrS2″][3Thi][Bta]Q-NH2 (staple 1-4, 4-11) [I-1482]"
6,> 20,"Ac-[αAllylPro]DK([PEG2′-Me3AdamantC])[B5(4)]DDAAFL[PyrS2][3Thi][Bta]Q-NH2 (staple 1-4, 4-11) [I-1472]"
7,9.6,"Ac-[αAllylPro]D[tBuAla][B5(4)]DD[(CH2NMe2)4SEF]AFL[PyrS2]F[Bta]Q (staple 1-4, 4-11) [I-1467]"
8,> 20,"Ac-[αAllylPro]D[tBuAla][B5(4)]DDAK([PEG2′-Lithocholoyl])FL[PyrS2″][3Thi][Bta]Q-NH2 (staple 1-4, 4-11) [I-1474]"
9,> 20,"Ac-[αAllylPro]DK([PEG2′-Lithocholoyl])[B5(4)]DDAAFL[PyrS2][3Thi][Bta]Q-NH2 (staple 1-4, 4-11) [I-1470]"
10,> 20,"Ac-[αAllylPro]DK(Me3AdamantC)[B5(4)]DDAAFL[PyrS2][3Thi][Bta]Q-NH2 (staple 1-4, 4-11) [I-1471]"
11,17.1,"Ac-[αAllylPro]D[tBuAla][B5(4)]DDAAFL[PyrS2″][3Thi][Bta]QK([PEG2′-Lithocholoyl])-NH2 (staple 1-4, 4-11) [I-1478]"

# Target: T2, B-cat-Halo (beta-catenin HaloTag …)
# Test: cell-based or functional assay
row,NanoBRET Abs IC50 [µM],Binder
1,9.4,"Ac-[αAllylPro]D[tBuAla][B5(3)]D[TfeGA]AAFL[PyrS2″][3Thi][Bta][(RDMAPyr)GlnR]-NH2 (staple 1-4, 4-11; not fully specified) [I-1804]"
2,25.2,"Ac-[αAllylPro]D[tBuAla][B5(3)]D[TfeGA″]AAFL[PyrS2″][3Thi][Bta][(Me2NPrPip)GlnR]-NH2 (staple 1-4, 4-11; not fully specified; reading uncertain) [I-1800]"
3,9.3,"Ac-[αAllylPro]D[tBuAla][B5(3)]D[TfeGA]AAFL[PyrS2″][3Thi][Bta][(RDMAPyr)GlnR]-NH2 (staple 1-4, 4-11; not fully specified) [I-1805]"
4,25.8,"Ac-[αAllylPro]D[tBuAla][B5(3)]D[TfeGA]AAFL[PyrS2″][3Thi][Bta][(Me2NPrPip)GlnR]-NH2 (staple 1-4, 4-11; not fully specified) [I-1799]"
5,22.5,"Ac-[αAllylPro]D[tBuAla][B5(3)]D[TfeGA]AAFL[PyrS2″][3Thi][Bta][(4Pippip)GlnR]-NH2 (staple 1-4, 4-11; not fully specified) [I-1797]"
6,25.2,"Ac-[αAllylPro]D[tBuAla][B5(3)]D[TfeGA″]AAFL[PyrS2″][3Thi][Bta][(4MePpzPip)GlnR]-NH2 (staple 1-4, 4-11; not fully specified; reading uncertain) [I-1802]"
7,> 20,B1
8,7.4,"Ac-[αAllylPro]D[tBuAla][B5(3)]D[TfeGA]AAFL[PyrS2″][3Thi][Bta][(TfePpz)GlnR]-NH2 (staple 1-4, 4-11) [I-1803]"
9,17.5,"Ac-[αAllylPro]D[tBuAla][B5(3)]D[TfeGA]AAFL[PyrS2″][3Thi][Bta][(4MePpzPip)GlnR]-NH2 (staple 1-4, 4-11; not fully specified) [I-1801]"

# Target: T3, Bcat-Halo (beta-catenin HaloTag fusion …)
# Test: cell-based or functional assay
row,NanoBRET Abs IC50 [µM],Binder
1,7.5,"Ac-[αAllylPro]D[tBuAla][B5(4)]DDAAFF[PyrS2][Phe(2-Cl)][Bta]Q-NH2 (staple 1-4, 4-11) [I-1366]"
2,7.8,"Ac-[αAllylPro]D[tBuAla][B5(4)]DDAAF[Phe(2-CF3)][PyrS2][Phe(2-Cl)][Bta]Q-NH2 (staple 1-4, 4-11) [I-1367]"
3,> 20,"[αAllylPro]D[tBuAla][B5(4)]DDAAFL[PyrS2]F[Bta]Q-NH2 (staple 1-4, 4-11) [I-1361]"
4,9.9,"Ac-[αAllylPro]D[tBuAla][B5(4)]DDAAF[Phe(4-CF3)][PyrS2][Phe(2-Cl)][Bta]Q-NH2 (staple 1-4, 4-11) [I-1369]"
5,8.8,"[αAllylPro]D[tBuAla][B5(4)]DDAAFL[PyrS2″][Ala(cPent)][Bta]Q-NH2 (staple 1-4, 4-11) [I-1353]"
6,9.7,"Ac-[αAllylPro]D[tBuAla][B5(4)]DDAAF[Phe(4-CF3)][PyrS2][3Thi][Bta]Q-NH2 (staple 1-4, 4-11) [I-1365]"
7,5.5,"Ac-[αAllylPro]D[tBuAla][B5(4)]DDAAF[Phe(2-CF3)][PyrS2][3Thi][Bta]Q-NH2 (staple 1-4, 4-11) [I-1363]"
8,19.6,"[αAllylPro]D[tBuAla][B5(4)]DDAAFL[PyrS2]F[Bta]Q-NH2 (staple 1-4, 4-11) [I-1362]"
9,10.5,"Ac-[αAllylPro]D[tBuAla][B5(4)]DDAAF[Phe(3-CF3)][PyrS2][3Thi][Bta]Q-NH2 (staple 1-4, 4-11) [I-1364]"
10,33.6,"[αAllylPro]D[tBuAla][B5(4)]DDAAFS[PyrS2″]F[Bta]S-NH2 (staple 1-4, 4-11) [I-1357]"
11,14.2,"Ac-[αAllylPro]D[tBuAla][B5(4)]DDAAF[Phe(3-CF3)][PyrS2][Phe(2-Cl)][Bta]Q-NH2 (staple 1-4, 4-11) [I-1368]"
12,> 20,B2
